This passage reports intrinsic activity (cAMP, NDP-α-MSH is 100%), Ki and EC50 (cAMP accumulation in HEK-293 cells expressing hMC4-R) results from US20110065652A1.

Bridge positions count the residues as written; N and C are the ends. Square brackets hold non-standard residues; d marks the D form. Orn = NCCC[C@H](N)C(=O)O; Dab = NCC[C@H](N)C(=O)O

The target of experiment [1] is human recombinant melanocortin-4 receptor (hMC4-R) (human) (UniProt P32245). Kind of experiment: cell-based or functional assay.
Chain of human recombinant melanocortin-4 receptor (hMC4-R) (human) (P32245 whole entry): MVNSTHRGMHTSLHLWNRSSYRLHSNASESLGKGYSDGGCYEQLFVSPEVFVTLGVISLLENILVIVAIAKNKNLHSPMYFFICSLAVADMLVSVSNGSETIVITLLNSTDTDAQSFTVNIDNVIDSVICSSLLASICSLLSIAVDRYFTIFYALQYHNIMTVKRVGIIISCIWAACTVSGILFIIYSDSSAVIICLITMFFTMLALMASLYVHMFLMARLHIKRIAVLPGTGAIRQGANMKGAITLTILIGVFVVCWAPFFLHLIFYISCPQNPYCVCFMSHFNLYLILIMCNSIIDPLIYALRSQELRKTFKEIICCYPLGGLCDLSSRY
In experiment [2] the target is human recombinant melanocortin-5 receptor (hMC5-R) (human) (UniProt P33032). Kind of experiment: competitive binding against Eu-NDP-α-MSH, HEK-293 hMC5-R membranes.
Chain of human recombinant melanocortin-5 receptor (hMC5-R) (human) (P33032 whole entry): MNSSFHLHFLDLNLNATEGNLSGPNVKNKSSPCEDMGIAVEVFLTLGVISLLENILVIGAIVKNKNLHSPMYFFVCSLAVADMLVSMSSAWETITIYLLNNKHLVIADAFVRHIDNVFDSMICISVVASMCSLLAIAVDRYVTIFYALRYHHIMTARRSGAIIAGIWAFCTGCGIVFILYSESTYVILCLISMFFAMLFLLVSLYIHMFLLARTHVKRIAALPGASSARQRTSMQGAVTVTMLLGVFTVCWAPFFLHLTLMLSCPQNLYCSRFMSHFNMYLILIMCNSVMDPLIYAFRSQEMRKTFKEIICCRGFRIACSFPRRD
The target of experiment [3] is human recombinant melanocortin-4 receptor (hMC4-R) (human) (UniProt P32245). Kind of experiment: competitive binding against [I125]-NDP-α-MSH, HEK-293 hMC4-R membranes.
Experiment [4] has as its target melanocortin-1 receptor (MC1-R), endogenous in B-16 mouse melanoma cells (mouse) (UniProt Q01727). Kind of experiment: competitive binding against [I125]-NDP-α-MSH, B-16 mouse melanoma membranes.
The target in experiment [5] is human recombinant melanocortin-3 receptor (hMC3-R) (human) (UniProt P41968). Briefly: competitive binding against labelled NDP-α-MSH (I125 or Eu), HEK-293 hMC3-R membranes.
Chain of human recombinant melanocortin-3 receptor (hMC3-R) (human) (P41968 whole entry): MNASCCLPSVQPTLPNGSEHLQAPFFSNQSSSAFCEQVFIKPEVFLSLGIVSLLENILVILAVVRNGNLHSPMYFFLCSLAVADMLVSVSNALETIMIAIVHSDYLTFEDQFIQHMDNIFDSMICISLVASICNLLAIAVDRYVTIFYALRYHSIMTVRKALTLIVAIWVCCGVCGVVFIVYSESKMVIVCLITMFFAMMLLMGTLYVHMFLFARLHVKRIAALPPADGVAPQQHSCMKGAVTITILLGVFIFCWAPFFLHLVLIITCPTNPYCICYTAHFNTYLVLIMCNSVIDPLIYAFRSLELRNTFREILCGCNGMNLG

Chain of melanocortin-1 receptor (MC1-R), endogenous in B-16 mouse melanoma cells (mouse) (Q01727 whole entry): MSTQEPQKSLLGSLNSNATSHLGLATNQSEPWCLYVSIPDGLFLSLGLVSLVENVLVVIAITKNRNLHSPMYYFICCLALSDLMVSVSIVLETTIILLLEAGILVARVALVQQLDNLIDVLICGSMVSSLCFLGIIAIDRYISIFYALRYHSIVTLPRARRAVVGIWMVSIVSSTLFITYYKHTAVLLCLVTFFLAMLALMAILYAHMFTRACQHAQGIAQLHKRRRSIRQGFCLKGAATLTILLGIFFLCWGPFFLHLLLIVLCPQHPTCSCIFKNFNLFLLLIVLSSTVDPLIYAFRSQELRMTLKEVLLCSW

One may read the Ki as a dissociation constant, usually derived from enzyme kinetics or from competition with a known ligand. As to Ac-RE[Dab][dF]RW[Orn]-OH (lactam 2-7; also: acetate and TFA salts) [cyclic peptide of Example 8.4, Ac-Arg-cyclo(Glu-Dab-D-Phe-Arg-Trp-Orn)-OH], the intrinsic activity (cAMP, NDP-α-MSH is 100%) in experiment [1] came out at 91%. The Ki in experiment [2] was 2370 nM; in experiment [3] it was 8 nM; in experiment [4], 4 nM; in experiment [5] it was 410 nM.

Take Ac-RE[Dab][dF]RW[Orn]-NH2 (lactam 2-7; also: TFA salt) [cyclic peptide of Example 8.3, Ac-Arg-cyclo(Glu-Dab-D-Phe-Arg-Trp-Orn)-NH2]: the EC50 (cAMP accumulation in HEK-293 cells expressing hMC4-R) in experiment [1] amounted to 0.3 nM. For the same molecule, in experiment [1], the intrinsic activity (cAMP, NDP-α-MSH is 100%) is 94%. The Ki amounted to 300 nM in experiment [2], 0.65 nM in experiment [3], 1 nM in experiment [4] and 74 nM in experiment [5].
